Measured values as given in patent US7271245B2, “Methods and compositions for inhibition of metastasis” (The Scripps Research Institute, priority 2004, dated 2007).

Key:
[1] = tested on: integrin αvβ3; experiment: Flow cytometry, scFv binding to human tumor cell panel
Experimental: FIGS. 1A, 1B, 1C. Patient derived scFvs Bc-12 and Bc-15 recognize tumor cell integrin αvβ3 in a cation and activation dependent manner. Flow cytometric analyses in TBS with or without 1 mM Ca^2+, 1 mM Mg^2+, or 0.2 mM Mn^2+ as indicated. Binding of soluble scFv detected after incubation with anti-Flag M2 murine mAb followed by FITC-anti mouse F(ab′)2. (A) scFv binding to human melanoma cells (M21: αvβ3 plus other αv integrins) (M21-LIIb: αIIbβ3, no αv integrins) or lung adenocarcinoma cells (UCLA-P3: αv integrins, no β3 integrin). (B) scFv binding to M21 melanoma cells. (C) scFv binding to variants of MDA-MB 435 human breast cancer cells that lack (β^3−) or express αvβ3 either in a non-activated (β3WT, ParentCo) or activated form (β3D723R, Bone, Lung, and BMS metastatic cancer cells isolated from breast cancer patient blood).
Flow cytometry. scFv binding to human tumor cells was analyzed by flow cytometry, initially with cloned scFv phage and then with purified scFv protein. Per sample, 2×10^5 tumor cells were blocked with goat serum and incubated either with scFv phage (2-5×10^10) (1 h at RT) followed by mouse anti-M13 mAb (Serotec) (30 min on ice) and goat FITC-anti mouse (Pierce) (30 min on ice), or with purified scFv (1.25 to 40 μg/ml, routinely 10 to 15 μg/ml) (45 min on ice), followed by mouse anti-FLAG mAb M2 (Sigma) (30 min on ice) and goat FITC-anti mouse. Binding/washing buffer was TBS with or without divalent cations (1 mM Ca^2+, 1 mM Mg^2+, 0.2 mM Mn^2+). Alternatively, tumor cells were washed in 10 ml of plasma (prepared freshly from human blood anticoagulated with 50 nM D-Phe-D-Pro-D-arginyl chloromethyl ketone, PPACK, Felding-Habermann et al., J. Biol. Chem. 271: 5892-5900, 1996), resuspended in plasma and then incubated sequentially, without washing, with purified scFv (45 min on ice), followed by anti-FLAG M2 (30 min on ice) and FITC-anti mouse (30 min on ice). All samples were counter stained with propidium iodide (PI) and analyzed on a Becton-Dickinson FACScan, with live gate set to exclude PI positive cells.
To generate therapeutic reagents that specifically react with activated αvβ3, a phage display library of single chain antibody fragments (scFv) was exploited. This library was derived from cancer patient blood lymphocyte cDNA libraries and allowed us to test the hypothesis that the expressed immune repertoire contains antibodies that recognize integrin αvβ3, and distinguish between its activated and non-activated forms. Mao et al., Proc. Natl. Acad. Sci. U.S.A 96: 6953-6958, 1999. A subtractive panning approach was designed based on variants of MDA-MB 435 human breast cancer cells. […] Apparently, these cells are selected during metastasis, as variant cells isolated from lung and bone metastases in immune deficient mice express constitutively activated αvβ3. To establish a cell population that uniformly expresses non-activated αvβ3, MDA-MB 435 parental cells were cloned by limiting dilution, and clones tested for αvβ3 functionality. […] A cell line, MDA-MB 435 Lung-Lung, was established which expressed αvβ3 in a constitutively activated form. This variant stems from a lung metastase of an immune deficient mouse whose mammary fat pad had been injected with parental MDA-MB 435 cells. Felding-Habermann et al., Proc. Natl. Acad. Sci. U.S.A 98: 1853-1858, 2001; Rolli et al., Proc. Natl. Acad. Sci. U.S.A 100: 9482-9487, 2003. To enrich for the ability to colonize the lung from the blood stream, the Lung variant was subsequently injected intravenously, and tumor cells cultured 3 weeks later from the excised lung. Parent Combo cells were used to subtract the scFv phage library to eliminate antibodies against antigens shared by the MDA-MB 435 cell variants. […]

[2] = tested on: BMS breast cancer cells; experiment: Antibody internalization (confocal microscopy); assay type: cell-based, human; conditions: FITC-labeled scFv, permissive temperature (37° C.)
Experimental: FIGS. 3A, 3B, 3C, 3D, 3E. scFv Bc-12 and Bc-15 inhibit αvβ3 mediated adhesive breast cancer cell functions. (A) Adhesion of BMS human breast cancer cells to fibrinogen (Fg), vitronectin (VN) or type I collagen (Col I) in the absence or presence of 3 μM Bc-12, Bc-15 or their RGE mutants Mut-12, Mut-15, compared to 200 μM GRGDSPK peptide (SEQ ID NO: 11). Protein coating concentrations: 10 μg/ml (VN, Col I) or 20 μg/ml (Fg). Adhesion time: 30 min at 37° C. (B) Effect of scFvs on haptotactic BMS cell migration toward a fibrinogen substrate (16 hrs at 37° C. in transwell chambers with or without 2 μM Bc-12, Bc-15 or their RGE mutants Mut-12 or Mut-15, compared to 200 μM GRGDSPK peptide) (SEQ ID NO: 11). (C) Effect of scFvs on breast cancer cell arrest during blood flow. […] Tumor cell adhesion was quantified by image acquisition at 30 predefined positions during blood flow. Left: representative images of platelet signal (thrombi, green fluorescence) and tumor cell signal (red fluorescence) at identical x,y positions. […]
Antibody internalization. Breast cancer cells grown in chamber slide wells were incubated with 20 μg/ml FITC-labeled scFv in serum free EMEM for 3 h either at 4° C. or 37° C., washed 10 times, fixed and permeabilized with 95% ethanol, stained with propidium iodide, mounted in antifade solution, and analyzed with a laser scanning confocal microscope.

B1: Bc-12: patient derived human scFv antibody against activated αvβ3 with RGD motif in CDR-H3; cDNA ATCC PTA-6303 (protein)
scFv: MAQVQLVQSGAEVKKPGASVKVSCKASGYTFSNYGITWVRQAPGQGLEWMGWINNGNTHYAQKFQGRVTMTTDTSTSTAYMELRSLRSDDTAVYYCARDPRGDDEPYWGQGTLVTVSSGGGGSGGGGSGGGGSEIVLTQSPLSLPVTLGQPASISCRSSQNLVYSDGNTYLSWFQQRPGQSPRRLIYKVSNRDSGVPDRFSGSGSGTDFTLKISRVEAEDIGVYYCMQGTHWPPRTFGQGTKVEIKRGLGGLVDYKDDDDK
binding in the presence of Mn2+ ([1]; 0.2 mM Mn^2+): greatly enhanced | binding in the presence of Mg2+ ([1]; 1 mM Mg^2+, M21 cells): at the same level as Ca^2+ | effect of Ca2+ on Mn2+ enhanced binding ([1]; Ca^2+ combined with Mn^2+, M21 cells): reduced the enhancing effect of Mn^2+ | reactivity with human tumor cells that express or lack αvβ3 ([1]; M21, M21-LIIb, UCLA-P3 cells, flow cytometry): reacted only with cells expressing the αvβ3 heterodimer | binding to M21-L cells ([1]; M21-L cells (no αv integrins)): failed to bind | cation requirement of binding ([1]; TBS with or without divalent cations): showed a cation dependence | binding in the presence of Ca2+ ([1]; physiological Ca^2+ levels (1 mM)): measurable | reactivity with M21-L4 cells ([1]; αvβ3 expression restored by transfection): did react | binding and internalization by adherent cells [2]: efficiently bound and readily internalized
